One assay deals with T1, recombinant human CD132 (human, UniProt P31785 23-262, limits assumed).
T1 construct: also called IL-2Rγ
T1 sequence (looked up): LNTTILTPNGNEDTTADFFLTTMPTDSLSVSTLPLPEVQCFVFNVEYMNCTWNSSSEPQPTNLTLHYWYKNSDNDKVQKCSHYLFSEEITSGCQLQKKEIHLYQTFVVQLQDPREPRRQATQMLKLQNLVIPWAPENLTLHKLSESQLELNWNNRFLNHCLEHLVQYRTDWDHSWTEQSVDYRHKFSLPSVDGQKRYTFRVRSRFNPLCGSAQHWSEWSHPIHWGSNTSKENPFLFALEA
In words: GCI (WAVEsystem). How it is done:
Binding affinity and kinetics constants of humanized CD122/CD132 FIT-Ig were determined using a label-free biosensor on WAVEsystem (Creoptix AG, Switzerland) by grating-coupled interferometry (GCI). Briefly, a PCP WAVEchip (Creoptix AG) was pre-immobilized with goat anti-human IgG Fc antibody to a density of 3830 pg/mm² by amine coupling, and used to capture humanized CD122/CD132 FIT-Ig generated from Example 3.2.1 to a density of ˜90 pg/mm², then exposed to recombinant human/cyno CD122 or CD132 serially diluted (3× dilutions from 200 nM to […] for human CD122, human CD132 and cyno CD132, respectively; and from 1000 nM to 1.37 nM for cyno CD122) in 1X HBS-EP+ buffer (Cytiva, Cat No. BR100669) by injection at 60 μL/min for 250s to assess association, followed by 1200s dissociation. After each round of association and dissociation, WAVEchip surface was regenerated by subject to pH 1.5 Glycine-HCl buffer injection at 60 μL/min for 120s. Sensorgrams were recorded at 25° C., the data were analyzed on WAVEcontrol (Creoptix AG) and double referenced by subtracting the signals from blank injections and the reference channel. A Langmuir 1:1 model was used for data fitting.

The target of assay [1] is T2, CD122/CD132 complex on HEK-Blue IL-2 cells (UniProt P14784 27-551; P31785 23-369, limits assumed).
T2 sequence (looked up) 1: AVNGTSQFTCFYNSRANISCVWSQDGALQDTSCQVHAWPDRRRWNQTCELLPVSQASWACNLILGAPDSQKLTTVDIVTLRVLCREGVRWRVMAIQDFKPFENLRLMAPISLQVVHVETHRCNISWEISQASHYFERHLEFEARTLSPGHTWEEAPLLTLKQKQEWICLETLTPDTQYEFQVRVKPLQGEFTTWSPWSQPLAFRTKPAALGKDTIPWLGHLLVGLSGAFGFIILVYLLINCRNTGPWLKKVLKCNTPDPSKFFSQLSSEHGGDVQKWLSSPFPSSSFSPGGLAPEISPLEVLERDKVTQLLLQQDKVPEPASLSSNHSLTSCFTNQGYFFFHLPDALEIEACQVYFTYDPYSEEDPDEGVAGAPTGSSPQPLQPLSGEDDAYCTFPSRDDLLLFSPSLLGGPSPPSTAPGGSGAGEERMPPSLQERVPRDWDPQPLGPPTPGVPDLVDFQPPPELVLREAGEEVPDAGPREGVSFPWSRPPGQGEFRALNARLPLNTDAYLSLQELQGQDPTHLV
T2 sequence (looked up) 2: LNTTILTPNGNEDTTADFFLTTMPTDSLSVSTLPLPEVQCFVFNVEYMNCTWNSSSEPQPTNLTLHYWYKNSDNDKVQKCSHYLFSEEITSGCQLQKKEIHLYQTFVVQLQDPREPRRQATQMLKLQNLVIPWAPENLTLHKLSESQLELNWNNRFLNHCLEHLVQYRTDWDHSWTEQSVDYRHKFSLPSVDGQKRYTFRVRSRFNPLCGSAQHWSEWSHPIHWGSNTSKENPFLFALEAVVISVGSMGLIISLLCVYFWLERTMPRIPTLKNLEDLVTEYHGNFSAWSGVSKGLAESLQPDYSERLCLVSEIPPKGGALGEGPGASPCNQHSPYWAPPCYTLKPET
The assay can be described thus: cell-based or functional assay.

Assay [2] concerns the target T3, human CD132 on HEK293 cells (human, UniProt P31785 23-369).
T3 construct: whole, on cells; also called cell surface CD132
T3 sequence (looked up): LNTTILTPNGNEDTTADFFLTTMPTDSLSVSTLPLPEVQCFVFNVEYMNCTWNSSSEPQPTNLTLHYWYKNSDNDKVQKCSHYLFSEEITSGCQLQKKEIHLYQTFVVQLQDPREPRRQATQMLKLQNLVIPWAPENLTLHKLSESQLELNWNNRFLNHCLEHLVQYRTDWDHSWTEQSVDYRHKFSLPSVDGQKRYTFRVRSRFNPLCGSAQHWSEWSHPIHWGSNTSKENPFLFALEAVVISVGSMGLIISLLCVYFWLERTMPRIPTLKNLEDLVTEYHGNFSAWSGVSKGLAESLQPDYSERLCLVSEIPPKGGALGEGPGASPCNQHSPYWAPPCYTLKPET
In words: Flow cytometry (MFI) on HEK293 cells overexpressing human CD132; the table gives no unit, the axis is Fab conc.(nM). How it is done: (§1) Briefly, a 96-well plate was seeded with 3×10⁵ cells each well, centrifuged at 400 g for 5 minutes and supernatants discarded, then added 100 μl of antibody (5× serial dilutions, 0.0064 to 100 nM) each well and gently mixed. After 60 minutes of incubation at 4° C., plates were washed several times to remove excess antibodies. Secondary fluorochrome-conjugated goat anti-human IgG antibody (Jackson Immunoresearch, Cat No. 109-606-098) was then added and incubated with cells at 4° C. for 20 minutes. After another round of centrifugation and washing, cells were resuspended in assay buffer (1X PBS containing 2% FBS) for reading on a flow-cytometer. Median Fluorescence Intensity (MFI) readouts were plotted against antibody concentration and analyzed with GraphPad Prism 6.0 software.
Background: In flow cytometry, cells or beads pass a laser one at a time.

In assay [3] the target is T4, human CD122 on HEK293 cells (human, UniProt P14784 27-551).
T4 construct: whole, on cells; also called cell surface CD122
T4 sequence (looked up): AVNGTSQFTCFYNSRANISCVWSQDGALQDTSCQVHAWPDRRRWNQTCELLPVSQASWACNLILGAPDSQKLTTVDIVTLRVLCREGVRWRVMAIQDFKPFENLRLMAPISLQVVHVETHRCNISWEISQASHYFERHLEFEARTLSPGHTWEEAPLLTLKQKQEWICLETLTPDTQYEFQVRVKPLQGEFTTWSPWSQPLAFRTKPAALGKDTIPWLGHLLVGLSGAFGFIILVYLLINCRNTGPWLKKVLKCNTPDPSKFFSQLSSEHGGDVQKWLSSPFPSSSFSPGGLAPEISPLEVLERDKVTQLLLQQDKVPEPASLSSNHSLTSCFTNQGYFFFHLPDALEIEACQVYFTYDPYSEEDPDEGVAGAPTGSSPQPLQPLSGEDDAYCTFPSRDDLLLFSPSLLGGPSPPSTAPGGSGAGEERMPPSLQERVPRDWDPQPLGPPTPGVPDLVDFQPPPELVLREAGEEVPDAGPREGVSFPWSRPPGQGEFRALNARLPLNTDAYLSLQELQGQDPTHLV
The assay can be described thus: Flow cytometry (MFI) on HEK293 cells overexpressing human CD122; the table gives no unit, the axis is Fab conc.(nM). The protocol: as §1

B1: huFIT2019-86b-48 (bispecific antibody, human IgG1, kappa, L234A L235A)
chain 1: not shown
chain 2: EVQLVQSGAEVKKPGASVKVSCKASGYTFTDYVISWVRQATGQGLEWMGEIYPGDGNTYYNEMFKGRVTMTRDTSISTAYMELSSLRSEDTAVYYCARGSYTYDNYAMDFWGQGTTVTVSSASTKGPSVFPLAPSSKSTSGGTAALGCLVKDYFPEPVTVSWNSGALTSGVHTFPAVLQSSGLYSLSSVVTVPSSSLGTQTYICNVNHKPSNTKVDKKVEPKSC
chain 3: not shown
As for B1, the binding result with recombinant human CD132 was “binds”. Further, in assay [1], the “EC50 from SEAP reporter gene assay” value was determined as 0.168 nM.

B2: huFIT2019-86b-49 (bispecific antibody, human IgG1, kappa, L234A L235A)
chain 1: not shown
chain 2: EVQLVQSGAEVKKPGASVKVSCKASGYTFTDYVISWVRQATGQGLEWMGEIYPGDGNTYYNEMFKGRVTMTRDTSISTAYMELSSLRSEDTAVYYCARGSYTYDNYAMDFWGQGTTVTVSSASTKGPSVFPLAPSSKSTSGGTAALGCLVKDYFPEPVTVSWNSGALTSGVHTFPAVLQSSGLYSLSSVVTVPSSSLGTQTYICNVNHKPSNTKVDKKVEPKSC
chain 3: not shown
Turning to B2, in the assay with recombinant human CD132, the binding result is reported as “binds”. Also, the “EC50 from SEAP reporter gene assay” value in assay [1] came out at 0.216 nM.

B3: huFIT2019-86b-50 (bispecific antibody, human IgG1, kappa, L234A L235A)
chain 1: not shown
chain 2: EVQLVQSGAEVKKPGASVKVSCKASGYTFTDYVISWVRQATGQGLEWMGEIYPGDGNTYYNEMFKGRVTMTRDTSISTAYMELSSLRSEDTAVYYCARGSYTYDNYAMDFWGQGTTVTVSSASTKGPSVFPLAPSSKSTSGGTAALGCLVKDYFPEPVTVSWNSGALTSGVHTFPAVLQSSGLYSLSSVVTVPSSSLGTQTYICNVNHKPSNTKVDKKVEPKSC
chain 3: not shown
For the molecule B3, the binding result with recombinant human CD132 is listed as “binds”. Also, the “EC50 from SEAP reporter gene assay” value in assay [1] stood at 0.286 nM.

B4: Duo2019-86b (bispecific antibody, human IgG1, kappa, L234A L235A)
heavy 1: EVQLQQPGSELVRPGASVKLSCKASGYTFTSYWMHWMKQRPGQGLEWIGHIYLGGGATNYAEKFRSKATLTADTSSSTAYMQLSSLTSEDSAVYYCTRSQPYYYGMDSWGQGTSVTVSSASTKGPSVFPLAPSSKSTSGGTAALGCLVKDYFPEPVTVSWNSGALTSGVHTFPAVLQSSGLYSLSSVVTVPSSSLGTQTYICNVNHKPSNTKVDKKVEPKSCDKTHTCPPCPAPEAAGGPSVFLFPPKPKDTLMISRTPEVTCVVVDVSHEDPEVKFNWYVDGVEVHNAKTKPREEQYNSTYRVVSVLTVLHQDWLNGKEYKCKVSNKALPAPIEKTISKAKGQPREPQVYTLPPSREEMTKNQVSLTCLVKGFYPSDIAVEWESNGQPENNYKTTPPVLDSDGSFLLYSKLTVDKSRWQQGNVFSCSVMHEALHNHYTQKSLSLSPGK
light 1: DIQMTQTPSSLSASLGDRVTISCRASQDISNYLNWYQQKPDGTVKLLIYYKSRLHSGVPSRFSGSGSGTEYSLTINNLEQEDFATYFCHQGHTIPFTFGSGTKLEIKRTVAAPSVFIFPPSDEQLKSGTASVVCLLNNFYPREAKVQWKVDNALQSGNSQESVTEQDSKDSTYSLSSTLTLSKADYEKHKVYACEVTHQGLSSPVTKSFNRGEC
heavy 2: QVQLQQSGPELVKPGASVKMSCKASGYRFSDYVISWVKQRSGQGLEWIGEIYPGDGNTYYNEMFKGRATLTADKSPNTAYMKLSSLTSEDSALYFCARGSYTYDNYAMDFWGQGTSVTVSSASTKGPSVFPLAPSSKSTSGGTAALGCLVKDYFPEPVTVSWNSGALTSGVHTFPAVLQSSGLYSLSSVVTVPSSSLGTQTYICNVNHKPSNTKVDKKVEPKSCDKTHTCPPCPAPEAAGGPSVFLFPPKPKDTLMISRTPEVTCVVVDVSHEDPEVKFNWYVDGVEVHNAKTKPREEQYNSTYRVVSVLTVLHQDWLNGKEYKCKVSNKALPAPIEKTISKAKGQPREPQVYTLPPSREEMTKNQVSLTCLVKGFYPSDIAVEWESNGQPENNYKTTPPVLDSDGSFFLYSRLTVDKSRWQQGNVFSCSVMHEALHNHYTQKSLSLSPGK
light 2: DVLMTQTPLSLPVSLGDQASISCRSSQNIVHSNGNTYLEWYLQKPGQSPKLLIYKVSNRFSGVPDRFSGSGSGTDFTLKISRVEAEDLGLYYCFQGSHIPWTFGGGTKLEIKRTVAAPSVFIFPPSDEQLKSGTASVVCLLNNFYPREAKVQWKVDNALQSGNSQESVTEQDSKDSTYSLSSTLTLSKADYEKHKVYACEVTHQGLSSPVTKSFNRGEC
notes: 1+1 asymmetric IgG1 made by Fab-arm exchange; printed both as Duo2019-86 and Duo2019-86b
The term EC50 denotes the concentration needed to bring the measured effect to its halfway point. High values mean lower potency in that assay, low ones higher potency in that assay. As for B4, the EC50 amounted to 11.4 nM in assay [2] and 1.63 nM in assay [3].

For the origin of these results see patent publication US20250002594A1 (SHANGHAI EPIMAB BIOTHERAPEUTICS, published 2025).
